test: soluble on expression in E. coli; label from the status in PepcDB or PDB records

Row | Sequence | soluble on expression in E. coli
1 | MYKIVSDSACDLSKEYLEKHDVTIVPLSVSFDGETYYRDGVDITRDECYQRMVDDPKLFPKTSLPSVESYADVFRSFVEQGFPVVCFTITTLFSGSYNSAINAKSLVLEDYPDANICVIDSKQNTVTQALLIDQFVRMLEDGLSFEQAMSKLDALMASARIFFTVGSLDYLKMGGRIGKVATAATGKLGVKPVIIMKDGDIGLGGIGRNRNKLKNSVLQVAKKYLDENNKDNFIVSVGYGYDKEEGFEFMKEVESTLDVKLDSETNVAIGIVSAVHTGPYPIGLGVIRKYETL | soluble
2 | MYLINQNGWIEVICGSMFSGKSEELIRRVRRTQFAKQHAIVFKPCIDNRYSEEDVVSHNGLKVKAVPVSASKDIFEHITEELDVIAIDEVQFFDGDIVEVVQVLANRGYRVIVAGLDQDFRGLPFGQVPQLMAIAEHVTKLQAVCSVCGSPASRTQRLIDGEPAAFDDPIILVGASESYEPRCRHCHAVPANKDK | not soluble
3 | MYLTKEEEQILNGEAGETLRQAIQILVALGDIYGADRLIPIKSAQIAGVSYKTIGDAGLEWISDLEGQVKVPAILNPAGMDLEDWERLRISPEFAEKQKEIVQAYKKLGIRCECTCTPYTLEGFSVSYGDHLAWSESSAISYANSVIGARTNREGGPSALSAALLGKTANYGFHLDKNRVPEVSVSVECSLKESDYGALGYVAGKLIGNRVPIFQLRSKPEKDELKSLGAAMAASGAVALYHVKGVTPEACRMDFEEPEEKIIIERSQLDEVYESKGKEPELITIGCPHCSAAELKKAAELLKGKTVSKETWIFTSRELAERYPEYIRTIEESGAKVVCDTCMVVSPATNSYSCVMVNSGKAFAYVPGMCGAQSVYGNMEACINKATGGKERKAGDSHLEHHHHHH | not soluble
4 | MYMAQPGHIDHIKQINAGRVYKLIDQKGPISRIDLSKESELAPASITKITRELIDAHLIHETTVQEAISRGRPAVGLQTNNLGWQFLSMRLGRGYLTIALHELGGEVLIDTKIDIHEIDQDDVLARLLFEIEEFFQTYAAQLDRVTSIAITLPGLVNSEQGIVLQMPHYNVKNLALGPEIYKATGLPVFVANDTRAWALAEKLFGHSQDVDNSVLISIHHGLGAGIVLDGRVLQGRHGNIGELGHIQIDPQGKRCHCGNYGCLETVASSQAIRDQVTARIQAGEPSCLATVEEISIEDICAAAADGDPLAVDVIQQLGRYLGAAIAIVINLFNPEKILIGGVINQAKSILYPSIEQCIREQSLPVYHQDLKLVESRFYKQATMPGAALIKQALYDGLLLMKVVEG | soluble
5 | MYNVEIRRPNSDDLEELHSFFRIVITNTFKDEGLSQLSDDIENEINTKKQYLKNDFDSNGEKRYFLLAIDTNNDKIIGTIEVGPASTLINSCTGGVLKDLYEIGTVFILPEYQKKGIGSFLLHTMFLTLLSRGITEYCLDSGYKKAQSIWTKKFGEPSYVLKDYWGESSDHMIWKKSLYDTPIIFELMAGDPLEHHHHHH | soluble
6 | MYPSDFASQLNVLSLKEMKEAIHHLLDIRDENTWMLFGTLPIYPCLNDEYDQHLLQRLRKSKNVTMRNDPDGRSRLNVNVFTGDVIVTDFGDENGTISNIQKDKLTDVFNQWLNTDLAQSLNCHCAEYQCLGPNVLVKNMYYPNTDFKKKEQIMHQHQIFS | not soluble
7 | MYQDLIRNELNEAAETLANFLKDDANIHAIQRAAVLLADSFKAGGKVLSCGNGGSHCDAMHFAEELTGRYRENRPGYPAIAISDVSHISCVGNDFGFNDIFSRYVEAVGREGDVLLGISTSGNSANVIKAIAAAREKGMKVITLTGKDGGKMAGTADIEIRVPHFGYADRIQEIHIKVIHILIQLIEKEMVK | soluble
8 | MYQKFKGGDLMIHGGDIYTEGVFKGRELLDYSSNINPLGIPKSFLNNIDEGIKNLGVYPDVNYRRLNKSIENYLKLKDIGIVLGNGASEIIELSISLFEKILIIVPSYAEYEINAKKHGVSVVFSYLDENMCIDYEDIISKIDDVDSVIIGNPNNPNGGLINKEKFIHVLKLAEEKKKTIIIDEAFIEFTGDPSSSFVGEIKNYSCLFIIRAMTKFFAMPGIRFGYGITNNKEIAAKIKAKQNPWNINCFAEMAAINCLKDTNYIEESLLWIKKERKRFIEELNKIGFIKRVFSPHANFVLCRLENISGEKLYDSLLKEDIVIRRCCNFIGLDDSFVRFAIKDEKKNTKFLRALKGVENNL | soluble
9 | MYRAGAVLLRGATRTRLLAAASAHQSFATFSQRNQSILMMKSMELAGNSGERRFYSTHDDPIAVDDSLELYKDLGGMSPIQVPADMPNVPMLAINRYPLFPGFIKKVDIVKDDNLKALIRRQLSLKQPYAGVFVKRDDENKEETITSLSEVYPTGSFVQIIEVRDQGSVLELVLSAHRRIRALEPIDEITPKNETPLNGRRARGKRAASATSPLTPPPSPPPLAPSVASVAPEISATEEKEEKTTPPSATGEKQKKGIIMVRTENVVAEPVPKNNETKATMMAIVQTIRDVVQFNQLFGQQINLLLHPSQNVIDNPVYLCDLVATLVQSAETKDLQEMMDEIDVSKRLKIALLLIQKEKAVAKLKYDINKDVEKKVQDHHRKYLLNEQLKVIKKELGIEKDEKTTIIEKIDERIKTLAVPEYALKVINEEKTKLQFLDPHSSEFSVTRNYLEWLTSVPWGLTSPENRRLSVAKKALDEGHYGMKDVKERIMEFIAVNLLRKSIGGKILCFHGPPGVGKTSIAKSIATALNREYFRFSVGGMTDVAEIKGHRRTYVGAMPGKMIQCMKKVKTENPLVLIDEVDKIGGAGFHGDPASALLELLDPEQNANFNDHFLDVPVDLSRVLFICTANEISKIPGPLRDRMEMIDVSGYLAEEKVEIAHQHLIPQLRKDTSLATEQLKIEDSALEELIKHYCRESGVRNLQQHIERIFRKAALQIAEQQNEDEEPAEKATTAITENSEAEPITSTSSADCLKSSAEQIVVCTENLQKFVGRPKFTSDRMYEVTPPGVIMGLAWTAMGGSALYIETVLKRPVDLTNDKDGSIETTGNLGDVMKESVRTALTVAKGILAREQPDNKFFDKAHIHIHVPEGATPKDGPSAGVTLVSSLLSLALDRPVVQDMAMTGEISLTGKVLPVGGIREKVIAARRVGAKRVFLPNENRRDFDDLPEFMKSELDIRFVSHYDELYEHLFQ | not soluble
10 | MYRGEPGTRAHQQEEHVVDSSPLEPSSSLEDTRVWGHVGVAAAPRLLAQALPKLRCKLPKPQAPLAGHEAQQPRGGLILPLALASELMESSTVQWLSYKQPQVVPVVPQLPRVLWQVQPLEKPGSQSFRNNQPSILLKTRLRFSITRISLFNYHR | soluble
11 | MYRKEWQDPDRIVDQLPISPGFDIVDLGCGPGFFTLPLASRTDGKVYAVDASDEMIEILKERIDGHSNIIPVKARAENIPIPDGTVDLVFIANAFHDFDDRDAVLGEIYRILRDGGYLVDIDWKKDETTHGPPVDIRIDRKDALLLISSHNFDIVKEIEAGAHHYGLLFRKN | not soluble
12 | MYSANRSHRAETRNRSKDELRKVINSLEKVRRWEKKLVLIKDTNIRIYKWVPVSAQNIMAPPKIKEVKEVDEESNQVPSAENSQDSTSVTQPPPQFDINEDSNFSTGDHFDSDSNQTFEPQNYQGGATGSTDFSSMRDAEMTSKQP | not soluble
13 | MYSEERRRQIASLTAVEGRVNVTELAARFDVTAETIRRDLAVLDREGVVHRVHGGAVANQTFQTAEFSLDTRSRSASGAKNSIAHAALSYLPEAQGGLFLDAGTTTAALAELLAAQPFAKHWSIVTNSLSIALTLANSGLDEIQLLGGSVRAITQAVVGDTALRTLALMRADVAFIGTNALTIDHGLSTADSQEAAIKSAMITNAHKVVVLCDSTKMGTDYLVSFGSISDIDVIITDANAPESFVKALRDRDVEVIIA | not soluble
14 | MYVGYLGPSGSFTHNAALKAFPEASLVSLGTITEVIKSYEEGRVDYAVIPVENSIEGSVHESLDYLFHQADIRAVAEIVQPIKQQLMASKHHAKIEKIFSHPQAIAQGKKYIKDHFPHAKIETTASTAFAARYVADNPDQPYAAIAPHAAAKEYGLEILAKDIQEIEKNYTRFWLLGSTVP | not soluble
15 | MYYDVLKTFIAVVEEKNFTKAAEKLMISQPSVSLHIKNLEKEFQTALLNRSPKHFTTTPTGDILYQRAKQMVFLYEQAKAEIYAHHHYVKGELKIAASFTIGEYILPPLLAQLQKLYPELNLDVMIGNTEEVSERVRMLQADIGLIEGHTNENELEIEPFMEDEMCIAAPNQHPLAGRKEISISDLQNEAWVTREKGSGTREYLDHVLSSNGLRPKSMFTISSNQGVKEAVINGMGLSVLSRSVLRKDLIHREISILHINNFSLKRKLSYIHSPLMENTKNKEIFITMLKSNYQSQLLK | soluble
16 | NALHVINMVGTRHATPYGQDICTRFLADLSVLCPNALIVSGLAYGIDIHAHRAALQNHFKTIGVLAHGLDRIYPAEHRKTAVSMLEQGGLLTEFTSGTNPDRQNFVKRNRIVAGMSDATVVIESAAKGGALITAELAESYHRDCFAFPGRCNDEYSIGCNNLIRKNQAVLITSAEDLVKAMGWESSPKTEKT | not soluble
17 | NDAFRWKTQFNFSTNKNKIIKLHPDLKTFVYGDESFSSSYSMRLVEGGSFGDIYGKAFERDENGKVAFTTDKDGDKIPNVIGGGNTEKVGNCNPDFMLGWSNTFTYKGFSLYFLIDGRFGGDVLSQTQAELDQRGVSLNSGKARDAGYINIDGTQVKPRKFYTAVSGRDGCTEYYMYDATNIRLRELSLGYSLPQSWLAKAGGAFKDVQLSFVARNLFFISKKAPFDPDAVLSTGNDNQGIDVFGMPTTRSLGFNIKFTF | not soluble
18 | NGFQKEMRTRILGMVPHATISAAQPLDDWQTVANAALRHREVVGAAPFAELQGMLSYKGNMLPVLVNGIDPQEERKVSIVGEHIVQGSLDDLKPGEFGIVLGEITARRFHVNVGDKLTLIVPEATSAPGGITPRMQRFTIVALFKVGAELDNSLALIDIADAGQLLRLQPGQVPSVRLELKDLYQSPQVAAKVVKELGQGFRSSDWTRTQGSLFNAMKMEKT | not soluble
19 | NGGIPHDNLVLIRMKPDENGRFGFNVKGGYDQKMPVIVSRVAPGTPADLCVPRLNEGDQVVLINGRDIAEHTHDQVVLFIKASCERHSGELMLLVRPNAVYDVVEE | soluble
20 | NISYFSIGSGTPIIFLHGLSLDKQSTCLFFEPLSNVGQYQRIYLDLPGMGNSDPISPSTSDNVLETLIEAIEEIIGARRFILYGHSYGGYLAQAIAFHLKDQTLGVFLTCPVITADHSKRLTGKHINILEEDINPVENKEYFADFLSMNVIINNQAWHDYQNLIIPGLQKEDKTFIDQLQNNYSFTFEEKLKNINYQFPFKIMVGRNDQVVGYQEQLKLINHNENGEIVLLNRTGHNLMIDQREAVGFHFDLFLDE | not soluble
21 | NKNFTWTTELTVSRNKNKVEKLPNTVQGFDTRNLTSIQEGYSLYSYWVYNQTGVNSQTGAIEIEDVNKDGKITTADRKIMGSVFPKLFGGFNNKFTYKGIDLGIFFIYSYGNKTWNQNEALGEQGGTLGDNRVLMAGQLDRWTTPGQETMVPKLTAANYQYFEVSRFLEDASFIRLRSLTLGYTLPKKWSSAVKTEKIRFYFTGTNLLLITKYTGSDPESNLGQGNLQGYDYDTPPQPRTIQFGLNLTL | not soluble
22 | NLSSSESQESTGQHQVTVAAVQGNVPRLGLDFNAQRRAVLANHVQETRKLTEQVDFIVWPENSSDVDPFADVRARNLINSAVASVQAPIVVGTVTTDEVGARNAMVVFDPETGEGDWHVKKFLQPFGEWMPWRDFFRKFSSLVDLAGDFKPGEGSGVVRVHAAQLGETVKLGISTCYEVAFDQAGRDAVLAGAQILATPTNNATFGFTDMTYQQLAMSRMRAIELDRAVVVAATSGVSAIVTPRGEVLQHSKIFESATLVQSLPLKETITFSARYGTLLE | not soluble

Source: the DeepSol protein solubility set
